For the test, the target named is purified active porcine pancreatic elastase (porcine) (UniProt P00772). Briefly: cell-based or functional assay.
Sequence of UniProt P00772 (P00772 27-266 limits assumed): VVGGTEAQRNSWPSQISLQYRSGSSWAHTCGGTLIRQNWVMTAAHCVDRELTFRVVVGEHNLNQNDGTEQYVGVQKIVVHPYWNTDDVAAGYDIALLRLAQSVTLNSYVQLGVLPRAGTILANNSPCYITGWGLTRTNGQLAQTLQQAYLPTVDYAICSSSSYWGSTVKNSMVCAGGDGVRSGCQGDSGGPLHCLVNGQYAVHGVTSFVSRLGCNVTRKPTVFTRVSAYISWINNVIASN

For “plasma-derived human alpha-1-antitrypsin (Prolastin-C) (from UniProt P01009 25-418)”, the A1AT concentration at which a decrease in elastase activity was detected is over 0.1 µM.

For the origin of these results see patent US20230272445A1.
